Tests used:
Assay type in all cases: cell-based, human
H460 cells = test: PD-L1 mRNA one step RT-qPCR, IFNγ treatment; conditions: 10 ng/mL IFNγ for 24h, normalized by GAPDH
Protocol: (§1) Additionally, the presence, abundance and ratio of different PD-L1 mRNA forms can be used to predict response. As way of example, PD-L1 mRNA were measured using primers amplifying within exon 3-4 (extracellular region of the transcribed protein that interacts with PD1). Other amplicons detecting the same or other forms can be used readily. For example, amplicons corresponding to the transmembrane and cytoplasmic tail to confirm full length plasma membrane bound protein is transcribed, or regions overlapping with either PD1 or anti-PD-L1 binding sites. Five cell lines (H460, H1299, H1650, H2126 and SKMES1) were treated with vehicle or 10 ng/mL IFNγ for 24h. More complex sample types, including cells isolated from solid tumors from preclinical and clinical cancers be used. Other time points, including those as early as 1h for IRF or 4h for PD-L1, can be readily used. RNA was isolated from the cells using an NEB kit (Cat #T2010) per the manufacturer's instructions. Isolated RNA was estimated using a NanoDrop […] and checked for its quality by checking the 260/280 ratio. RNA concentration was brought to 40 ng/uL in all the samples to take equal quantity for further steps of RT and real time PCR. One step RT-qPCR was performed using a Power SYBR Green RNA to Ct One step kit (Cat #4931198) as per the manufacturer's instructions. A 200 ng RNA template was taken for total 20 uL reaction per well in 96 well PCR microplate for Roche 480 Light cycler. The following primer pairs (Sigma) were used for PD-L1 and GAPDH and were used at a concentration in the reaction mixture of 400 nM:
(§2) A Roche 480 Light cycler was used for performing the one step real time PCR. Data was analyzed using 2^-ΔΔCt method normalized by GAPDH for relative levels. Alternative housekeeper genes may be readily used.

H2126 cells = test: PD-L1 mRNA one step RT-qPCR, IFNγ treatment; conditions: 10 ng/mL IFNγ for 24h, normalized by GAPDH
Protocol: as §1, §2

BxPC3 cells = test: PD-L1 western blot after modulators (EM and MTAs); conditions: Pancreatic BxPC3, 30 minutes, 3 hours, 24 hours
From the text: (§3) Cell lines were acquired from ATCC, Sigma, or DSMZ. Human non-small cell lung carcinoma (NSCLC) cell lines H292 (ATCC no. CRL-1848.), H1299 (ATCC no. CRL-5803), H520 (ATCC no. CRL-5811), CALU6 (ATCC no. HTB-56), H1975 (ATCC no. CRL-5908), H460 (ATCC no. HTB-177), H2126 (ATCC no. CCL-256), H1650 (ATCC no. CRL-5883), and H2087 (ATCC no. CRL-5922) were used for this experiment along with head and neck squamous cell carcinoma (HNSCC) cell lines BHY (DSMZ ACC 404), CAL27 (ATCC no. CRL-2095), KYSE410 (Sigma), and A253 (ATCC no. HTB-41), melanoma cell lines A375 (ATCC no. CRL-1619), COL0853 (Sigma), and MM127 (Sigma) pancreatic cancer cell lines BXPC3 (ATCC no. CRL-1687), colorectal cancer cell lines […], HCT116 (ATCC no. CCL-247EMT), and breast cancer cell lines BT549 (ATCC no. HTB-122), BT20 (ATCC no. HTB-19), and T47D (ATCC no. HTB-133). Cells were maintained in manufacturer-recommended conditions at 37° C. inside humidified 5% CO2 incubators. Sub-cultivation and harvesting for all cell lines were performed using Accutase (GIBCO Life Technologies; cat. no. A1110501) at 37° C. for 10 minutes. Cell viability was measured using trypan blue exclusion staining in conjunction with the Countess II Automated Cell Counter (Thermo Fischer Scientific; cat. no. AMQAX1000). Measurements were made in duplicate and the average number of viable cells was recorded prior to experiments.
(§4) Enhancer Molecule and Therapies: IFNγ, (10 ng/ml; Sigma Aldrich, cat.no 11040596001), TNFα (10 ng/ml; BD Biosciences cat. no. 554618), Osimertinib (100 ng/ml; Selleckchem cat.no. S7297), Everolimus (100 ng/ml; Selleckchem cat.no S1120), GSK458 (10 ng/ml; Selleckchem cat. no. S2658), TNFb (50 ng/ml; Sigma Aldrich cat. no.), GSK795 (1,000 ng/ml; Selleckchem cat. no. S7492), IL-12 (50 ng/ml; Sigma Aldrich SRP3073), GM-CSF (50 ng/ml; Sigma Aldrich cat. no. G5035), IL-1a (1 ng/ml; Sigma Aldrich cat. no. 12778-), IL-6 (50 ng/ml; Sigma Aldrich), IL-17 (100 ng/ml; Sigma Aldrich cat. no. SRP3080), TGFb (1 ng/ml; Sigma Aldrich cat. no. T7039), and IL-10 (50 ng/ml; Sigma Aldrich cat. no. SRP3071) were administered to cell lines for various times including 30 minutes, 3 hour, and 24 hour time intervals prior to cell lysis and protein extraction.
(§5) To determine the effects of the aforementioned molecules on the modulation of PD-L1, we selected various NSCLC, HNSCC, breast cancer, melanoma, colorectal cancer, and pancreatic cancer cell lines as examples. Other diseases or cell lines could be used readily as could more complex samples such as cells isolated from xenografts and clinical samples. Cells were plated, for three different time points (30 minutes, 3 hours, and 24 hours), inside 6-well petri dishes with 2 mL of appropriate medium. Plates were incubated for 24 hours in 5% CO2 incubators at 37° C. After 24 hours, each 6-well plate was washed with PBS (Gibco Life Technologies, cat. no. 10010023) followed by fresh media being added along with each cell line's vehicle control or appropriate modulator for each specific time point, and were placed in CO2 incubators until their modulation time point was reached. Other conditions can be readily used, such as processing on automated systems such as SnapPath. At the end of each time point, while keeping plates on ice, cell lysis was conducted by aspirating culture medium from each plate, washing of each plate three times with 5 ml of cold PBS (Gibco Life Technologies, cat. no. 10010023) and culminated with the addition of cold 1× lysis buffer containing (Cell Signaling, cat. no. 9803 S) protease inhibitor cocktail (Cell Signaling, cat. no. 5871S), phosphatase inhibitor cocktail (Cell Signaling, cat. no. 5870S), and PMSF (Fisher Scientific, cat. no. ICN19538101). Plates were then placed on ice for ten minutes, swirling each plate intermittently. Aliquots of protein lysates were prepared and then stored at −80° C. until protein quantification and Western blot analysis was to be conducted. […]

BT20 cells = test: PD-L1 western blot after modulators (EM and MTAs); conditions: Breast BT20, 30 minutes, 3 hours, 24 hours
From the text: as §3, §4, §5

H1299 cells = test: PD-L1 western blot after modulators (EM and MTAs); conditions: NSCLC H1299, 30 minutes, 3 hours, 24 hours
From the text: as §3, §4, §5

B1: IFNγ: human IFNγ, modulator (10 ng/ml; Sigma Aldrich) (protein, UniProt P01579 24-161, looked up)
Interferon gamma: QDPYVKEAENLKKYFNAGHSDVADNGTLFLGILKNWKEESDRKIMQSQIVSFYFKLFKNFKDDQSIQKSVETIKEDMNVKFFNSNKKKRDDFEKLTNYSVTDLNVQRKAIHELIQVMAELSPAAKTGKRKRSQMLFRG
H460 cells
  change of PD-L1 mRNA upon IFNγ exposure: decrease
H2126 cells
  change of PD-L1 mRNA upon IFNγ exposure: decrease
BxPC3 cells
  PD-L1 Response: Up
BT20 cells
  PD-L1 Response: Up
H1299 cells
  PD-L1 Response: Up

— patent publication US20220347267A1, “METHODS TO IMPROVE PATIENT RESPONSE TO IMMUNE CHECKPOINT INHIBITORS AND FUNCTIONAL TESTS TO PREDICT RESPONSE” (Biomarker Strategies, LLC, priority 2019, published 2022)
